Laboratory results published in US20240398804.

Target: YAP1 Y357F (UniProt P46937)

Substance: WT SRC (expressed from plasmid in 293T cells)
- YAP1 tyrosine phosphorylation (immunoprecipitation, immunoblot): Under conditions where YES1 or SRC phosphorylated YAP1, we failed to detect phosphorylation of the YAP1 Y357F mutant

Substance: YES1 (Yamaguchi sarcoma viral oncogene homolog 1)
- YAP1 tyrosine phosphorylation (immunoprecipitation, immunoblot): Under conditions where YES1 or SRC phosphorylated YAP1, we failed to detect phosphorylation of the YAP1 Y357F mutant
